According to the supplement of paper PMC11780869:

Tested on: Bacillus subtilis
Experiment: cleaved RNA product abundance (RNA/gDNA barcode ratio) relative to median wild-type variant (ratio to wild type); higher = more accumulation of the downstream cleavage product
Conditions: cleavage site: cggR-gapA (positions -7 to +36 mutated)
How it was run: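 B. subtilis strains with chromosomally integrated reporter mRNAs (truncated aprE or tetM) holding barcoded, mutagenized RNase Y cleavage-site windows grew in LB at 37°C from OD600 0.0003 to 0.3. Cleaved product abundance is each construct's RNA:gDNA barcode ratio, scaled to the median construct with the unmutated site. It came from sequencing barcodes of gel-selected, reverse-transcribed cleaved RNA and of genomic DNA.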

[1] = experiment (reporter, strain, medium): exp 2b: truncated aprE reporter, strain BJT200
[2] = experiment (reporter, strain, medium): exp 4a: truncated aprE reporter, strain BJT201 with 2% xylose (RNase J1 expressed)
[3] = experiment (reporter, strain, medium): exp 6: tetM reporter, strain 168

| Sequence | cleaved RNA product abundance [1] | cleaved RNA product abundance [2] | cleaved RNA product abundance [3] |
| --- | --- | --- | --- |
| ACAGACGAAGGAGCCGCAAAGAAGTTATTAAGGGATGCATAATCACTCAATATAAATATCTCTCACTTATTTAAA | 0.0901 | 0.109 | – |
| ACAGACGAAGGAGCCGCAAAGAAGTTATTAAGGGATGCATAATCCCACAATATAAATATCTCTCACTTATTTAAA | – | 0.204 | – |
| ACAGACGAAGGAGCCGCAAAGAAGTTATTAAGGGATGCATAATCCCTAAATATAAATATCTCTCACTTATTTAAA | – | 0.76 | – |
| ACAGACGAAGGAGCCGCAAAGAAGTTATTAAGGGATGCATAATCCCTCAATAAAAATATCTCTCACTTATTTAAA | – | 0.139 | – |
| ACAGACGAAGGAGCCGCAAAGAAGTTATTAAGGGATGCATAATCCCTCAATATAAACATCTCTCACTTATTTAAA | – | 0.545 | – |
| ACAGACGAAGGAGCCGCAAAGAAGTTATTAAGGGATGCATAATCCCTCAATATAAATAGCTCTCACTTATTTAAA | – | 0.45 | – |
| ACAGACGAAGGAGCCGCAAAGAAGTTATTAAGGGATGCATAATCCCTCAATATAAATATCTCTCACTTATTTAAA | 0.856 | 0.844 | 1.15 |
| ACAGACGAAGGAGCCGCAAAGAAGTTATTAAGGGATGCATAATCCCTCAATTTAAATATCTCTCACTTATTTAAA | 0.177 | – | – |
| ACAGACGAAGGAGCCGCAAAGAAGTTATTAAGGGATGCATAATCCCTCACTATAAATATCTCTCACTTATTTAAA | – | 0.233 | – |
| ACAGACGAAGGAGCCGCAAAGAAGTTATTAAGGGATGCATAATCTCTCAATATAAATATCTCTCACTTATTTAAA | – | 0.725 | – |
| ACAGACGAAGGAGCCGCAAAGAAGTTATTAAGGGATGCATAATTCCTCAATATAAATATCTCTCACTTATTTAAA | – | 0.559 | – |
| ACAGACGAAGGAGCCGCAAAGAAGTTATTAAGGGATGCATCATCCCTCAATATAAATATCTCTCACTTATTTAAA | – | 0.307 | – |
| ACAGACGAAGGAGCCGCAAAGAAGTTATTAAGGGATGCGTAATCCCTCAATATAAATATCTCTCACTTATTTAAA | – | 0.629 | – |
| ACAGACGAAGGAGCCGCAAAGAAGTTATTAAGGGATGGATAATACCTCAATATAAATATCTCTCACTTATTTAAA | – | 0.103 | – |
| ACAGACGAAGGAGCCGCAAAGAAGTTATTAAGGGATGGATAATCCATCAATATAAATATCTCTCACTTATTTAAA | – | 0.189 | – |
| ACAGACGAAGGAGCCGCAAAGAAGTTATTAAGGGATGGATAATCCCTAAATATAAATATCTCTCACTTATTTAAA | – | 0.553 | – |
| ACAGACGAAGGAGCCGCAAAGAAGTTATTAAGGGATGGATAATCCCTCAATATAAAAATCTCTCACTTATTTAAA | – | 0.356 | – |
| ACAGACGAAGGAGCCGCAAAGAAGTTATTAAGGGATGGATAATCCCTCAATATAAATATCTCTCACTTATTTAAA | 0.623 | 0.884 | 0.969 |
| ACAGACGAAGGAGCCGCAAAGAAGTTATTAAGGGATGGATAATCCCTCGATATAAATATCTCTCACTTATTTAAA | – | 0.235 | – |
| ACAGACGAAGGAGCCGCAAAGAAGTTATTAAGGGATGGATAATCCGTCAATATAAATATCTCTCACTTATTTAAA | – | 0.149 | – |

| Sequence | cleaved RNA product abundance [1] | cleaved RNA product abundance [2] | cleaved RNA product abundance [3] |
| --- | --- | --- | --- |
| ACAGACGAAGGAGCCGCAAAGAAGTTATTAAGGGATGGATAATTCCTCAATATAAATATCTCTCACTTATTTAAA | – | 0.58 | – |
| ACAGACGAAGGAGCCGCAAAGAAGTTATTAAGGGATGGATACTCCCTCAATATAAATATCTCTCACTTATTTAAA | 0.263 | – | – |
| ACAGACGAAGGAGCCGCAAAGAAGTTATTAAGGGATGTAAAATCCCTCAATATAAATATCTCTCACTTATTTAAA | – | 1.04 | – |
| ACAGACGAAGGAGCCGCAAAGAAGTTATTAAGGGATGTAGAATCCCTCAATATAAATATCTCTCACTTATTTAAA | – | 0.768 | – |
| ACAGACGAAGGAGCCGCAAAGAAGTTATTAAGGGATGTATAAACCCTCAATATAAATATCTCTCACTTATTTAAA | 0.448 | 0.592 | – |
| ACAGACGAAGGAGCCGCAAAGAAGTTATTAAGGGATGTATAATACCTCAATATAAATATCTCTCACTTATTTAAA | 0.139 | 0.103 | – |
| ACAGACGAAGGAGCCGCAAAGAAGTTATTAAGGGATGTATAATCCATCAATATAAATATCTCTCACTTATTTAAA | 0.175 | 0.238 | – |
| ACAGACGAAGGAGCCGCAAAGAAGTTATTAAGGGATGTATAATCCCACAATATAAATATCTCTCACTTATTTAAA | – | 0.308 | – |
| ACAGACGAAGGAGCCGCAAAGAAGTTATTAAGGGATGTATAATCCCCCAATATAAATATCTCTCACTTATTTAAA | 0.205 | – | – |
| ACAGACGAAGGAGCCGCAAAGAAGTTATTAAGGGATGTATAATCCCTAAATATAAATATCTCTCACTTATTTAAA | 0.551 | 0.748 | – |
| ACAGACGAAGGAGCCGCAAAGAAGTTATTAAGGGATGTATAATCCCTCAAAATAAATATCTCTCACTTATTTAAA | 0.267 | 0.344 | – |
| ACAGACGAAGGAGCCGCAAAGAAGTTATTAAGGGATGTATAATCCCTCAATATAAAAATCTCTCACTTATTTAAA | – | 0.439 | – |
| ACAGACGAAGGAGCCGCAAAGAAGTTATTAAGGGATGTATAATCCCTCAATATAAATATCTCTCACTTATTTAAA | 0.943 | 0.978 | 0.798 |
| ACAGACGAAGGAGCCGCAAAGAAGTTATTAAGGGATGTATAATCCCTCAATATAAATCTCTCTCACTTATTTAAA | – | 0.82 | – |
| ACAGACGAAGGAGCCGCAAAGAAGTTATTAAGGGATGTATAATCCCTCAATATATATATCTCTCACTTATTTAAA | 0.631 | – | – |
| ACAGACGAAGGAGCCGCAAAGAAGTTATTAAGGGATGTATAATCCCTCAATTTAAATATCTCTCACTTATTTAAA | 0.218 | 0.146 | – |
| ACAGACGAAGGAGCCGCAAAGAAGTTATTAAGGGATGTATAATCCCTCAGTATAAATATCTCTCACTTATTTAAA | 0.218 | 0.237 | – |
| ACAGACGAAGGAGCCGCAAAGAAGTTATTAAGGGATGTATAATCCCTCATTATAAATATCTCTCACTTATTTAAA | – | 0.387 | – |
| ACAGACGAAGGAGCCGCAAAGAAGTTATTAAGGGATGTATAATCCCTCCATATAAATATCTCTCACTTATTTAAA | 0.162 | – | – |
| ACAGACGAAGGAGCCGCAAAGAAGTTATTAAGGGATGTATAATCCCTGAATATAAATATCTCTCACTTATTTAAA | – | 0.461 | – |

| Sequence | cleaved RNA product abundance [1] | cleaved RNA product abundance [2] | cleaved RNA product abundance [3] |
| --- | --- | --- | --- |
| ACAGACGAAGGAGCCGCAAAGAAGTTATTAAGGGATGTATAATCCCTTAATATAAATATCTCTCACTTATTTAAA | – | 0.445 | – |
| ACAGACGAAGGAGCCGCAAAGAAGTTATTAAGGGATGTATAATCCGTCAATATAAATATCTCTCACTTATTTAAA | – | 0.187 | – |
| ACAGACGAAGGAGCCGCAAAGAAGTTATTAAGGGATGTATAATCCTTCAATATAAATATCTCTCACTTATTTAAA | – | 0.922 | – |
| ACAGACGAAGGAGCCGCAAAGAAGTTATTAAGGGATGTATAATCGCTCAATATAAATATCTCTCACTTATTTAAA | – | 0.173 | – |
| ACAGACGAAGGAGCCGCAAAGAAGTTATTAAGGGATGTATAATCTCTCAATATAAATATCTCTCACTTATTTAAA | 0.708 | 0.513 | – |
| ACAGACGAAGGAGCCGCAAAGAAGTTATTAAGGGATGTATAATTCCTCAATATAAATATCTCTCACTTATTTAAA | – | 0.576 | – |
| ACAGACGAAGGAGCCGCAAAGAAGTTATTAAGGGATGTATATTCCCTCAATATAAATATCTCTCACTTATTTAAA | – | 0.88 | – |
| ACAGACGAAGGAGCCGCAAAGAAGTTATTAAGGGATGTGTAATCCCTCAATATAAATATCTCTCACTTATTTAAA | – | 0.526 | – |
| ACAGACGAAGGAGCCGCAAAGAAGTTATTAAGGGATTAAAAATCCCTCAATATAAATATCTCTCACTTATTTAAA | 0.941 | 0.629 | – |
| ACAGACGAAGGAGCCGCAAAGAAGTTATTAAGGGATTAACAATCCCTCAATATAAATATCTCTCACTTATTTAAA | 1.08 | 0.961 | – |
| ACAGACGAAGGAGCCGCAAAGAAGTTATTAAGGGATTAAGAATCCCTCAATATAAATATCTCTCACTTATTTAAA | – | 1.06 | – |
| ACAGACGAAGGAGCCGCAAAGAAGTTATTAAGGGATTAATAAACCCTCAATATAAATATCTCTCACTTATTTAAA | 0.559 | 0.575 | – |
| ACAGACGAAGGAGCCGCAAAGAAGTTATTAAGGGATTAATAACCCCTCAATATAAATATCTCTCACTTATTTAAA | 0.749 | 0.72 | – |
| ACAGACGAAGGAGCCGCAAAGAAGTTATTAAGGGATTAATAAGCCCTCAATATAAATATCTCTCACTTATTTAAA | 0.453 | 0.667 | – |
| ACAGACGAAGGAGCCGCAAAGAAGTTATTAAGGGATTAATAATACCTCAATATAAATATCTCTCACTTATTTAAA | 0.139 | 0.187 | – |
| ACAGACGAAGGAGCCGCAAAGAAGTTATTAAGGGATTAATAATCACTCAATATAAATATCTCTCACTTATTTAAA | – | 0.129 | – |
| ACAGACGAAGGAGCCGCAAAGAAGTTATTAAGGGATTAATAATCCATCAATATAAATATCTCTCACTTATTTAAA | 0.401 | 0.288 | – |
| ACAGACGAAGGAGCCGCAAAGAAGTTATTAAGGGATTAATAATCCCACAATATAAATATCTCTCACTTATTTAAA | 0.238 | 0.347 | – |
| ACAGACGAAGGAGCCGCAAAGAAGTTATTAAGGGATTAATAATCCCCCAATATAAATATCTCTCACTTATTTAAA | – | 0.272 | – |
| ACAGACGAAGGAGCCGCAAAGAAGTTATTAAGGGATTAATAATCCCGCAATATAAATATCTCTCACTTATTTAAA | – | 0.225 | – |
